Broadly, the IC50 is the point on the concentration scale where inhibition reaches its midpoint.

B1: C19 synthetic peptide (peptide)
peptide: AESGDDYCVLVFTDSAWTKICDWSHFRN
modifications: disulfide 8-21 (inferred)
notes: also called C19 peptide; C19 clone
B2: C19 with truncation of the C-terminal 7 amino acids (peptide)
peptide: AESGDDYCVLVFTDSAWTKIC
B3: C19-jun fusion protein (designed binder)
chain: MAESGDDYCVLVFTDSAWTKICDWSHFRNGPGGGSGGGSGGGSGGGSGGGSRCGGRIARLEEKVKTLKAQNSELASTANMLREQVAQLKQKVMNHGGCGGSGGHHHHHH
notes: also called Clone 19-jun protein
B4: C19junΔhep (designed binder)
chain: B3 chain with R56Q, R59Q, K65Q, K68Q
notes: also called C19jun?hep; C19junahep
B5: FGFR1c extracellular domain-IgG fusion protein (Fc fusion, human, UniProt P11362 22-377, looked up)
chain: RPSPTLPEQAQPWGAPVEVESFLVHPGDLLQLRCRLRDDVQSINWLRDGVQLAESNRTRITGEEVEVQDSVPADSGLYACVTSSPSGSDTTYFSVNVSDALPSSEDDDDDDDSSSEEKETDNTKPNRMPVAPYWTSPEKMEKKLHAVPAAKTVKFKCPSSGTPNPTLRWLKNGKEFKPDHRIGGYKVRYATWSIIMDSVVPSDKGNYTCIVENEYGSINHTYQLDVVERSPHRPILQAGLPANKTVALGSNVEFMCKVYSDPQPHIQWLKHIEVNGSKIGPDNLPYVQILKTAGVNTTDKEMEVLHLRNVSFEDAGEYTCLAGNSIGLSHHSAWLTVLEALEERPAVMTSPLYLEI
notes: range 1-377; also called FGFR-IgG; FGFR ECD; not shown: Fc region of human IgG1

In experiment [1] the target is B5. In words: BIAcore real-time kinetic analysis, immobilized FGFR1c ECD, no heparin; approximate apparent affinity. As for the experimental part:
C19 peptide with an intrapeptide disulfide bond was synthesized, purified by HPLC, and characterized by mass spectroscopy. C19junΔhep protein was prepared by changing human c-jun residues Arg276, Arg279, Lys285, and Lys288 in the leucine zipper domain to glutamines. […] The extracellular ligand-binding domain of human FGFR Ic (residues 1-377) and human erythropoietin receptor (residues 1-250) were fused to the Fe region of human IgGI, expressed in baculovirus and purified by protein A affinity chromatography. […] PDGF receptor Fc fusion protein was from R&D Systems.
In general terms: SPR reads the build-up and loss of mass on a sensor chip optically.

Experiment [2] addresses B5. In words: deletion mutant analysis; method not stated.
For experiment [3], the target named is FGF receptor (FGFR) on Swiss 3T3 cells. Briefly: cell-based or functional assay.
Experiment [4] addresses T1, F12 phagemid (F12 clone peptide displayed on M13 p8) (bacteriophage M13).
T1 construct: Assayed as whole phagemid particles captured by anti-M13 antibody; The frame A-X3-C-X10-C-X3-(GGS)2GG-p8 is inferred from the 18mer two-cysteine pattern of F12; not shown: M13 p8 coat protein, peptide fused to its N-terminus
Briefly: displacement of Europium-labeled FGFR-IgG by unlabeled FGFR-IgG from F12 phagemid captured on anti-M13 antibody (time-resolved fluorescence). As for the experimental part: Nunc Maxisorp 96-well plates were coated with […] anti-M13 antibody in […] 50 mM Na₂CO₃ pH 9.6 and blocked using the conditions described in Example 2. Phagemid (˜10¹¹ cfu) were applied to wells in binding buffer for 1h and washed 6 times with PBS, 0.05% Tween 20, and 2 times with Delphia Wash Buffer (E&G Wallac). […] Wells were washed 8× in Delphia Wash Buffer, treated with 100 μL of Delphia Enhancer Solution and fluorescence measured. IC₅₀ values were determined from four-parameter fits to displacement plots.

Where a chain is given by its changes, count along the chain named. Bridges are numbered along the chain shown (N, C = ends). Where no end group is shown, it is not given here.

For the molecule B1, the Kd in experiment [1] was 400 nM.
With B2, the “fold loss of affinity against untruncated C19” value in experiment [2] was ~15 fold.
Consider B3, for which the “EC50 of mitogenesis (BrdU incorporation) in Swiss 3T3 cells with 15 U/ml heparin” value in experiment [3] is 0.24 nM. Further, in experiment [1], the Kd came out at 10 nM.
Regarding B4, the Kd in experiment [1] came out at 10 nM.
Take B5: the IC50 in experiment [4] was ~12 nM.

The values are drawn from US20040054131A1 (CHIRON, published 2004).
